Test results as given in patent US20220135694A1, “NOVEL CD40-BINDING ANTIBODIES” (LAVA THERAPEUTICS B.V., priority 2019, published 2022).

Key:
[1] = test system: CD40-stimulated CLL cells; assay: Cytotoxicity against CLL cells cultured on 3T3 or CD40L+ 3T40L fibroblasts; assay type: cell-based, human; details: with Vγ9Vδ2-T cells 1:1, V19S76K-5C8 100 nM; 3T3 versus 3T40L; FIG. 14
Experimental: Primary CLL cells were obtained, cryopreserved and thawed as described in Example 3. 3T3 fibroblasts, either WT or transfected with human CD40L (3T40L), were grown in complete IMDM. Vγ9Vδ2-T cells were grown as described in Example 7.
Primary CLL cells were cultured for 72 hours on irradiated 3T3 or 3T40L fibroblasts to induce CD40 stimulation.
Cells were then harvested and cultured overnight either with venetoclax (10 nM) as described in Example 10, or with Vγ9Vδ2-T cells and V19S76K-5C8 as described in Example 12. Viability measurement and flow cytometry were performed as described in Example 10.

[2] = test system: Vγ9Vδ2-T cells from CLL patients; assay: Cytokine and degranulation assay: autologous Vγ9Vδ2-T cells from CLL patients; assay type: cell-based, human; details: 10 nM, overnight with autologous CLL cells
Experimental: (§1) PBMCs from CLL patients were obtained, cryopreserved and thawed as described in Example 3.
CLL PBMCs were partially depleted of CD19^+ CLL cells using magnetic beads (130-050-301, Miltenyi Biotec. ±50% of the PBMCs were CD19^+ after CD19 depletion). PBMCs were then cultured overnight with V19S76K-5C8 (10 nM) or medium control in the presence of Brefeldin A, GolgiStop and anti-CD107a to measure cytokine production and degranulation as described in Example 11. In contrast to Example 11, surface staining included PE-conjugated anti-Vγ9-TCR (2256535, Sony) and FITC-conjugated goat-anti-Ilama IgG-heavy and light chain antibodies (A160-100F, Bethyl Laboratories Inc.)

CD19+ CLL cells = assay: Cytotoxicity of CLL cells by autologous CD3+ cells, live cell count with counting beads; assay type: cell-based, human; details: 10 nM, overnight, CD3+:CD19+ 10:1, autologous; FIG. 16
Experimental: as §1
CD3^+ cells were isolated from CLL PBMCs using magnetic beads (purity ≥93%; 130-050-101, Miltenyi Biotec) to simultaneously enrich for Vγ9Vδ2-T cells. CD19^+ CLL cells were isolated from the same sample using magnetic beads (purity ≥93%; 130-050-301, Miltenyi Biotec). CD3^+ cells were cultured overnight with CD19^+ CLL cells in a 10:1 ratio with V19S76K-5C8 (10 nM) or medium control.
Samples were incubated with Fixable Viability Dye eF780 (65-0865-14), PerCPeF710-conjugated anti-CD3), PE-conjugated anti-CD5 (12-0059-42, all Thermo Fisher Scientific) and FITC-conjugated anti-CD20 (A07772, Beckman Coulter) antibodies. Live CLL cells were then quantified using counting beads (01-1234-42, Thermo Fisher Scientific) on a FACSCanto cytometer (BD Biosciences).

primary MM cells = assay: Lysis of primary multiple myeloma cells by healthy donor-derived Vγ9Vδ2-T cells; assay type: cell-based, human; details: overnight with healthy donor-derived Vγ9Vδ2-T cells, 1:1; FIG. 17B
Experimental: (§2) FIG. 17: V19S76K-5C8 is active against primary multiple myeloma. (A) Example of CD40 expression on primary MM cells, as detected using anti-CD40 PE antibody, clone MAB89, Beckman Couter, IM1936U. Representative histograms of 4 donors (B) Bone marrow of MM patients was cultured overnight in the presence or absence of healthy donor-derived Vγ9Vδ2-T cells in a 1:1 (Vγ9Vδ2-T:plasma cell) ratio in the absence or presence of V19S76K-5C8 (10 μM or 10 nM). Live plasma cells were quantified by flow cytometry using counting beads (n=5). (C, D) Mononuclear cells from the bone marrow of MM patients were cultured overnight with V19S76K-5C8 (VHH; 10 nM), aminobisphosphonate (ABP; 10 μM zoledronic acid (positive control)) or medium control in the presence of brefeldin, monensin and anti-CD107a to measure (C) cytokine production and (D) degranulation by flow cytometry (n=6). Data are presented as mean and SEM. *P<0.05, **P<0.01. (B-D: repeated-measures one-way ANOVA followed by Dunnett's post hoc test compared to condition without antibody).
Because CD40 is also expressed on primary multiple myeloma (MM) cells (Pellat-Deceunynck et al. (1994) Blood 84:2597) (FIG. 17A) and CD40 stimulation exerts various biological effects, including proliferation of MM cells, we assessed the efficacy of V19S76K-5C8 in primary bone marrow samples from MM patients.

[3] = test system: Vγ9Vδ2-T cells present in the bone marrow of MM patients; assay: Activation of Vγ9Vδ2-T cells in bone marrow mononuclear cells from MM patients; assay type: cell-based, human; details: 10 nM, overnight
Experimental: as §2
Similarly, Vγ9Vδ2-T cells present in bone marrow mononuclear cells from MM patients degranulated after culture with the bispecific VHH V19S76K-5C8 (FIG. 17D).

MM.1s cells = assay type: in vivo, mouse
Experimental: FIG. 18: The bispecific […] VHH prolongs survival in vivo. Immunodeficient NSG mice were irradiated on day −1 and grafted (i.v.) with 2.5*10^6 MM.1s cells on day 0. Mice received PBS or human Vγ9Vδ2-T cells (1*10^7 cells; both i.v.) on days 7, 14 and 21 followed by PBS or V19S76K-5C8 (VHH; 5 mg/kg; both i.p.) twice weekly starting on day 9. (A) Schematic overview of treatment schedule. (B) Kaplan-Meier analyses of mouse survival (control: n=6; V19S76K-5C8 (VHH): n=6, Vγ9Vδ2-T cells: n=8, Vγ9Vδ2-T cells+V19S76K-5C8 (VHH): n=8). CD40 expression on MM.1s cells (human CD45^+CD38^+ cells) in the (C) bone marrow (BM) and (D) plasmacytomas at the time of sacrifice. (E) Body weight after 7 weeks of treatment relative to individual body weight at time of tumor injection. **P<0.01, ***P<0.001. Data are presented as mean and SD. (B: Mantel-Cox logrank test followed by Holm-Sidak's post hoc test, C: one-way ANOVA followed by Dunnett's post hoc test compared to control mice, D: unpaired t-test).
To study the effects of the bispecific VHH on tumor growth in vivo, immunodeficient NSG mice were injected with cells of MM.1s, a human multiple myeloma cell line. The tumor cells were allowed to grow out and engraft for 1 week before mice received the first of three weekly i.v. injections with either human Vγ9Vδ2-T cells or PBS, followed by twice weekly i.p. injections with V19S76K-5C8 or PBS (FIG. 18A).

B1: V19S76K-5C8: tag-less bispecific anti-CD40-anti-Vγ9Vδ2-TCR VHH, SEQ ID NO:23 (protein)
VHH: QVQLQESGGGLVQAGGSLRLSCAASGRTFGRSAMGWFRQAPGKEREFVAAIGTRGGSTKYADSVKGRFTISTDNAKNTVYLQMDSLKPEDTAVYRCAVRGPGYPSAAIFQDEYHYWGQGTQVTVSSGGGGSEVQLVESGGGLVQAGGSLRLSCAASGRPFSNYAMGWFRQAPGKEREFVAAISWSGGSTSYADSVKGRFTISRDNAKNTVYLQMNSPKPEDTAIYYCAAQFSGADYGFGRLGIRGYEYDYWGQGTQVTVSS
modifications: antibody sequence
Q: For B1, which “cytotoxicity in unstimulated versus CD40-stimulated CLL cells” value [1] is on record?
A: Its value is “induced cytotoxicity in unstimulated and CD40-stimulated CLL cells to a similar extent”.

Q: What about the “production of IFN-γ, TNF-α and IL-2 by Vγ9Vδ2-T cells from CLL patients” value ([2]; FIG. 15A-C) of the same molecule?
A: Its value is “produced the cytokines IFN-γ”.

Q: What about the “Vγ9Vδ2-T cell degranulation (CD107a expression)” value ([2]; FIG. 15D) of the same molecule?
A: Its value is “induced Vγ9Vδ2-T cell degranulation”.

Q: What about the “live CLL cells versus medium control” value (CD19+ CLL cells) of the same molecule?
A: Its value is “Fewer CLL cells were alive”.

Q: And the “lysis of primary MM cells” value (primary MM cells)?
A: Its value is “lysed primary MM cells”.

Q: And the “production of IFN-γ and TNF-α by bone marrow Vγ9Vδ2-T cells” value ([3]; FIG. 17C)?
A: Its value is “triggered to produce the pro-inflammatory cytokines IFN-γ and TNF-α”.

Q: And the “degranulation of bone marrow Vγ9Vδ2-T cells” value ([3]; FIG. 17D)?
A: The value was “degranulated”.

Q: And the median overall survival (MM.1s cells; V19S76K-5C8 5 mg/kg i.p. twice weekly plus human Vγ9Vδ2-T cells i.v., control group 47 days, FIG. 18B)?
A: Its median overall survival is 80 days.

Q: What about the overall survival (MM.1s cells; V19S76K-5C8 alone, without Vγ9Vδ2-T cells, FIG. 18B) of the same molecule?
A: Its overall survival is “Neither V19S76K-5C8 alone or the Vγ9Vδ2-T cells alone significantly improved overall survival”.

Q: What about the “overall survival versus control group” value (MM.1s cells; V19S76K-5C8 plus Vγ9Vδ2-T cells, FIG. 18B) of the same molecule?
A: Its value is “lived significantly longer”.

Q: What about the “CD40 expression on malignant cells in the bone marrow versus control mice” value (MM.1s cells; V19S76K-5C8 plus Vγ9Vδ2-T cells, at time of sacrifice, FIG. 18C) of the same molecule?
A: The value was “significantly lower”.

Q: What about the “CD40 expression on malignant plasma cells in plasmacytomas” value (MM.1s cells; V19S76K-5C8 plus Vγ9Vδ2-T cells, at time of sacrifice, FIG. 18D) of the same molecule?
A: Its value is “A similar trend was observed”.
